From publication PMC6770890

Target: T1, H-NS (Salmonella enterica serovar Typhimurium ATCC 14028s) (UniProt A0A0F6B244)
T1 sequence: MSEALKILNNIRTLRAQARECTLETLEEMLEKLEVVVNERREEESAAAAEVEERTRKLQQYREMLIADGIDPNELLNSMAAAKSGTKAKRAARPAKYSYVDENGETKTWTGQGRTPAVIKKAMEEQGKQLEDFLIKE
Test: EMSA
Details: 20 mM Tris-HCl, 1 mM EDTA, 100 ug/mL BSA, 1 mM DTT, 10% glycerol, 80 mM NaCl, 25 C, 30 min; 50 ng DNA in 20 uL, protein 0-9.76 uM; pH 7.5 or 5.5 in Fig. 5B …

Row | Sequence | binding
1 | GCCGTGCTGTTCACTCATCCGCGCCACCAGCCGGTCAAGGTGCAGACGGGCAATCACGCCACGCGACGTTTCGTCCAGCGGCAGGTAAGGGATCACCGTCACGCGGCCCAGAAATGCCGCCGGGAAATGCTTGCGCAATTCCGGCATTAGCGCCTCTTTAAGCCCCGTAGCATCGGGCATTAAGGCCGGATCTTCACACATCTGGCTGATGAGGTCGGAACCCACGTTGGTGGTGAGTAATAGCGTGGTG (double strand) [STM0272 fragment] | no binding
2 | CAAAGACGCCGAGAATGTGAAAAAATTCGTTCAGGCTTATCAGTCTGATGAAGTGTACGAAGCCGCAAATAAAGTTTTTAATGGCGGCGCGGTGAAAGGCTGGTAAGTTTTAGGCTGATTCCACAATCTGTAATATTATTCAGGACGGGCTATTGCCCGTCTTGTCATTTATGCAAGCTCCTGATTCAATATCTGGC (double strand) [yaeB promoter (PyaeB)] | binds
